From patent US20190336574A1 (TRUSTEES OF PRINCETON UNIVERSITY, published 2019)

T1: His6-SND1ΔC (SND1 residues 1-339) (human, UniProt Q7KZF4 1-339)
T1 construct: not shown: N-terminal His tag (His6, His8 or His) with TEV site, pQlink vector
T1 sequence: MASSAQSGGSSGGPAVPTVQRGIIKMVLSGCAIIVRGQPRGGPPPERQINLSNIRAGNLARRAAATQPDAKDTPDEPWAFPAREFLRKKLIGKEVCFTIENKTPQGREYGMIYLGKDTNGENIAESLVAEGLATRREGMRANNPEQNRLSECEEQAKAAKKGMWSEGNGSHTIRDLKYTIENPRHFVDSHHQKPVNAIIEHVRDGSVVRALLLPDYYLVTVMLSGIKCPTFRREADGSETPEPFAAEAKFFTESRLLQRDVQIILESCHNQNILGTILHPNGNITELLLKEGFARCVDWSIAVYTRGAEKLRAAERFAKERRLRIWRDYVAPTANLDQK

T2: murine SND1, wild type (mouse, UniProt Q78PY7 1-910)
T2 construct: Endogenous protein of murine PyMT mammary tumor cells; also called SND1 (in PyMT tumor cells); WT shRNA-resistant murine SND1
T2 sequence (looked up): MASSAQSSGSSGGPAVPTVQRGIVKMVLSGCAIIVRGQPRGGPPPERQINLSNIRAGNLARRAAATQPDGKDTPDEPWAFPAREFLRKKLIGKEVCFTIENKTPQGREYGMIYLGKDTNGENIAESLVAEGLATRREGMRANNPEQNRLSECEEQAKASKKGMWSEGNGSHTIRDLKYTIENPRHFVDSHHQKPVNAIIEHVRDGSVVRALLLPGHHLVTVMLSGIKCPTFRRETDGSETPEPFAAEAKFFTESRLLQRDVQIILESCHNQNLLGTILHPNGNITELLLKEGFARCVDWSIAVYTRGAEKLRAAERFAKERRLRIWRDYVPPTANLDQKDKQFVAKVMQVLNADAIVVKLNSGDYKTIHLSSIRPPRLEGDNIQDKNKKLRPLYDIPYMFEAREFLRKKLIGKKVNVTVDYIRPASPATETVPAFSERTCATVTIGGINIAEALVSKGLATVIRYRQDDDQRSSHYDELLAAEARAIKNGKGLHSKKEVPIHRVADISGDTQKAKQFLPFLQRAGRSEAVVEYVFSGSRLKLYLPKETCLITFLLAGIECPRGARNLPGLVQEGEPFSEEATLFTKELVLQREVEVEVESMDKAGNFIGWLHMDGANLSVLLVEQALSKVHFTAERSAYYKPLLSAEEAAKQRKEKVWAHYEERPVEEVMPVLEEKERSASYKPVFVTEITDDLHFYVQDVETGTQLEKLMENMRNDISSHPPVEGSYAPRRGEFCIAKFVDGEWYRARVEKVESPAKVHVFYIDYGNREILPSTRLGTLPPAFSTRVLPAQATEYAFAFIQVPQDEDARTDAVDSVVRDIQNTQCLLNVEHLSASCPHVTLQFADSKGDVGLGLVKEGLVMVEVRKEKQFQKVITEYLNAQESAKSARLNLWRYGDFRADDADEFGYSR


Biological target: T1, His6-SND1ΔC (SND1 residues 1-339)
Assay: GST pull-down of His6-SND1ΔC, SDS-PAGE, Coomassie
From the text: FIGS. 7A-E represents determination of key regions and residues mediating the MTDH-SND1 interaction. (FIG. 7A) Schematics of MTDH fragments and mutants with indicated SND1-binding capability. + indicates binding and − indicates no binding based on results shown below. Two putative nuclear localization signals are residues 432-451 for NLS2 and residues 561-580 for NLS3. […] (FIG. 7B) Pulldown of His6-SND1ΔC by GST-tagged MTDH fragments with indicated boundaries. The bound proteins were examined by SDS-PAGE and visualized by Coomassie blue staining. […] For (FIG. 7B) and (FIG. 7C), 1/10 of the His6-SND1ΔC input was shown, and GST alone was used as a negative control. Representative results of 3 independent experiments are shown. (FIG. 7D, FIG. 7E) Lysates from HEK293T cells expressing the indicated ectopic human SND1, AGO2 or MTDH were immunoprecipitated with anti-Myc and immunoblotted with the indicated antibodies.
TPM1 comprises mutations D389R, D393R and W394D. TPM2 comprises mutations E399R, E400R and W401D. TPM3 comprises mutations W404D, D406R and E407R. […] The mutations are also set out in Table 3.

Binder	binding result
GST-MTDH (1-289) (other, not shown: N-terminal GST tag with TEV site, pQlink vector) MAARSWQDELAQQAEEGSARLREMLSVGLGFLRTELGLDLGLEPKRYPGWVILVGTGALGLLLLFLLGYGWAAACAGSRKKRRSPPRKREEAAAVPAAAPDDLALLKNLRSEEQKKKNRKKLSEKPKPNGRTVEVAEGEAVRTPQSVTAKQPPEIDKKNEKSKKNKKKSKSDAKAVQNSSRHDGKEVDEGAWETKISHREKRQQRKRDKVLTDSGSLDSTIPGIENTITVTTEQLTTASFPVGSKKNKGDSHLNVQVSNFKSGKGDSTLQVSSGLNENLTVNGGGWNEK	no binding
GST-MTDH (364-582) TPM1 (D389R, D393R, W394D) (other, not shown: N-terminal GST tag with TEV site, pQlink vector) YQWDVSRNQPYIDDEWSGLNGLSSARPNSRDNAPAEEWGNWVDEERASLLKSQEPIPDDQKVSDDDKEKGEGALPTGKSKKKKKKKKKQGEDNSTAQDTEELEKEIREDLPVNTSKTRPKQEKAFSLKTISTSDPAEVLVKNSQPIKTLPPATSTEPSVILSKSDSDKSSSQVPPILQETDKSKSNTKQNSVPPSQTKSETSWESPKQIKKKKKARRET	no binding
GST-MTDH (364-582) TPM2 (E399R, E400R, W401D) (other, not shown: N-terminal GST tag with TEV site, pQlink vector) YQWDVSRNQPYIDDEWSGLNGLSSADPNSDWNAPARRDGNWVDEERASLLKSQEPIPDDQKVSDDDKEKGEGALPTGKSKKKKKKKKKQGEDNSTAQDTEELEKEIREDLPVNTSKTRPKQEKAFSLKTISTSDPAEVLVKNSQPIKTLPPATSTEPSVILSKSDSDKSSSQVPPILQETDKSKSNTKQNSVPPSQTKSETSWESPKQIKKKKKARRET	no binding

Biological target: His-SND1 (16-339), SN1/2 domains, wild type (human) (UniProt Q7KZF4)
Assay: GST pull-down on glutathione resin, SDS-PAGE, Coomassie blue; normalised percentage of binding, mean±SEM of three experiments

Binder	% Maximum binding
GST-MTDH (364-582) W401A (protein, not shown: a dimerising Fc or GST) YQWDVSRNQPYIDDEWSGLNGLSSADPNSDWNAPAEEAGNWVDEERASLLKSQEPIPDDQKVSDDDKEKGEGALPTGKSKKKKKKKKKQGEDNSTAQDTEELEKEIREDLPVNTSKTRPKQEKAFSLKTISTSDPAEVLVKNSQPIKTLPPATSTEPSVILSKSDSDKSSSQVPPILQETDKSKSNTKQNSVPPSQTKSETSWESPKQIKKKKKARRET	6%
GST-MTDH (364-582) W394D (protein, not shown: a dimerising Fc or GST) YQWDVSRNQPYIDDEWSGLNGLSSADPNSDDNAPAEEWGNWVDEERASLLKSQEPIPDDQKVSDDDKEKGEGALPTGKSKKKKKKKKKQGEDNSTAQDTEELEKEIREDLPVNTSKTRPKQEKAFSLKTISTSDPAEVLVKNSQPIKTLPPATSTEPSVILSKSDSDKSSSQVPPILQETDKSKSNTKQNSVPPSQTKSETSWESPKQIKKKKKARRET	4%

Biological target: T2, murine SND1, wild type
Assay: co-IP (anti-MTDH) from reconstituted PyMT;Mtdh-/- tumor cells, western blot
From the text: IP lysates were subjected to western blotting with indicated antibodies.
In particular, genetic deletion of Mtdh in mice impairs the tumor-initiating potential of mammary epithelial cells transformed by diverse oncogenes (PyMT, Wnt, ErbB2) or carcinogen stimuli, and this defect can be readily rescued by reintroducing MTDH into Mtdh-knockout (Mtdh−/−) tumor cells by lentiviral transduction. To test whether interacting with SND1 is important for the tumor-initiating effect of MTDH, the murine form of WT or mutant MTDH (W394A or W401A, corresponding mutations in mouse are W391A, W398A) was stably expressed in mammary tumor cells from PyMT;Mtdh−/− mice. […] To examine how MTDH mutations affect tumor formation in vivo, PyMT;Mtdh−/− tumor cells were orthotopically transplanted into the mammary fat pads of WT recipient mice. […] Furthermore, the size of tumors formed by PyMT;Mtdh−/− tumor cells reconstituted with mutant MTDH was much smaller than that with WT MTDH (FIG. 23D-E).

Binder	binding result
murine MTDH TPM1 (D386R, D390R, W391D) (other, mouse, UniProt Q80WJ7 1-579, looked up, also called TPM1 (murine form)) MAARSWQDELAQQAEEGSARLRELLSVGLGFLRTELGLDLGLEPKRYPGWVILVGTGALGLLLLFLLGYGWAAACAGARKKRRSPPRKREEAAPPTPAPDDLAQLKNLRSEEQKKKNRKKLPEKPKPNGRTVEVPEDEVVRNPRSITAKQAPETDKKNEKSKKNKKKSKSDAKAVQNSSRHDGKEVDEGAWETKISHREKRQQRKRDKVLTDSGSLDSTIPGIENIITVTTEQLTTASFPVGSKKNKGDSHLNVQVSNFKSGKGDSTLQVSSRLNENLTVNGGGWSEKSVKLSSQLSEEKWNSVPPASAGKRKTEPSAWTQDTGDTNANGKDWGRNWSDRSIFSGIGSTAEPVSQSTTSDYQWDVSRNQPYIDDEWSGLNGLSSARPSSRDNAPAEEWGNWVDEDRASLLKSQEPISNDQKVSDDDKEKGEGALPTGKSKKKKKKKKKQGEDNSHTQDTEDLEKDTREELPVNTSKARPKQEKACSLKTMSTSDPAEVLIKNSQPVKTLPPAISAEPSITLSKGDSDNSSSQVPPMLQDTDKPKSNAKQNSVPPSQTKSETNWESPKQIKKKKKARRET	no binding
murine MTDH W391A (printed as W394A in human numbering) (other, mouse, UniProt Q80WJ7 1-579, looked up, also called W394A (murine form)) MAARSWQDELAQQAEEGSARLRELLSVGLGFLRTELGLDLGLEPKRYPGWVILVGTGALGLLLLFLLGYGWAAACAGARKKRRSPPRKREEAAPPTPAPDDLAQLKNLRSEEQKKKNRKKLPEKPKPNGRTVEVPEDEVVRNPRSITAKQAPETDKKNEKSKKNKKKSKSDAKAVQNSSRHDGKEVDEGAWETKISHREKRQQRKRDKVLTDSGSLDSTIPGIENIITVTTEQLTTASFPVGSKKNKGDSHLNVQVSNFKSGKGDSTLQVSSRLNENLTVNGGGWSEKSVKLSSQLSEEKWNSVPPASAGKRKTEPSAWTQDTGDTNANGKDWGRNWSDRSIFSGIGSTAEPVSQSTTSDYQWDVSRNQPYIDDEWSGLNGLSSADPSSDANAPAEEWGNWVDEDRASLLKSQEPISNDQKVSDDDKEKGEGALPTGKSKKKKKKKKKQGEDNSHTQDTEDLEKDTREELPVNTSKARPKQEKACSLKTMSTSDPAEVLIKNSQPVKTLPPAISAEPSITLSKGDSDNSSSQVPPMLQDTDKPKSNAKQNSVPPSQTKSETNWESPKQIKKKKKARRET	no binding
murine MTDH W398A (printed as W401A in human numbering) (other, mouse, UniProt Q80WJ7 1-579, looked up, also called W401A (murine form)) MAARSWQDELAQQAEEGSARLRELLSVGLGFLRTELGLDLGLEPKRYPGWVILVGTGALGLLLLFLLGYGWAAACAGARKKRRSPPRKREEAAPPTPAPDDLAQLKNLRSEEQKKKNRKKLPEKPKPNGRTVEVPEDEVVRNPRSITAKQAPETDKKNEKSKKNKKKSKSDAKAVQNSSRHDGKEVDEGAWETKISHREKRQQRKRDKVLTDSGSLDSTIPGIENIITVTTEQLTTASFPVGSKKNKGDSHLNVQVSNFKSGKGDSTLQVSSRLNENLTVNGGGWSEKSVKLSSQLSEEKWNSVPPASAGKRKTEPSAWTQDTGDTNANGKDWGRNWSDRSIFSGIGSTAEPVSQSTTSDYQWDVSRNQPYIDDEWSGLNGLSSADPSSDWNAPAEEAGNWVDEDRASLLKSQEPISNDQKVSDDDKEKGEGALPTGKSKKKKKKKKKQGEDNSHTQDTEDLEKDTREELPVNTSKARPKQEKACSLKTMSTSDPAEVLIKNSQPVKTLPPAISAEPSITLSKGDSDNSSSQVPPMLQDTDKPKSNAKQNSVPPSQTKSETNWESPKQIKKKKKARRET	no binding
murine MTDH TPM2 (E396R, E397R, W398D) (other, mouse, UniProt Q80WJ7 1-579, looked up, also called TPM2 (murine form)) MAARSWQDELAQQAEEGSARLRELLSVGLGFLRTELGLDLGLEPKRYPGWVILVGTGALGLLLLFLLGYGWAAACAGARKKRRSPPRKREEAAPPTPAPDDLAQLKNLRSEEQKKKNRKKLPEKPKPNGRTVEVPEDEVVRNPRSITAKQAPETDKKNEKSKKNKKKSKSDAKAVQNSSRHDGKEVDEGAWETKISHREKRQQRKRDKVLTDSGSLDSTIPGIENIITVTTEQLTTASFPVGSKKNKGDSHLNVQVSNFKSGKGDSTLQVSSRLNENLTVNGGGWSEKSVKLSSQLSEEKWNSVPPASAGKRKTEPSAWTQDTGDTNANGKDWGRNWSDRSIFSGIGSTAEPVSQSTTSDYQWDVSRNQPYIDDEWSGLNGLSSADPSSDWNAPARRDGNWVDEDRASLLKSQEPISNDQKVSDDDKEKGEGALPTGKSKKKKKKKKKQGEDNSHTQDTEDLEKDTREELPVNTSKARPKQEKACSLKTMSTSDPAEVLIKNSQPVKTLPPAISAEPSITLSKGDSDNSSSQVPPMLQDTDKPKSNAKQNSVPPSQTKSETNWESPKQIKKKKKARRET	no binding
